A short description of data set [1]: n-Octanol-PBS distribution coefficient (logD7.4). The format is physicochemical. Conditions: pH = 7.4, ^177Lu-labeled. The procedure: Approximately 1 MBq of the labeled tracer was dissolved in 1 mL of a 1/1 mixture (v/v) of phosphate buffered saline (PBS, pH = 7.4) and n-octanol in an Eppendorf tube (1.5 mL). After vigorous mixing of the suspension for 3 min at rt, the vial was centrifuged at 9,000 rpm for 5 min (Biofuge 15, Heraeus Sepatech, Osterode, Germany) and 200 µL aliquots of both layers were measured in a γ-counter. The experiment was repeated at least five times.

The target of data set [2] is T1, Human serum albumin (HSA) (Homo sapiens, UniProt P02768).
T1 construct: purchased Daicel, Tokyo, Japan H13H-2433
T1 sequence (P02768 25-609): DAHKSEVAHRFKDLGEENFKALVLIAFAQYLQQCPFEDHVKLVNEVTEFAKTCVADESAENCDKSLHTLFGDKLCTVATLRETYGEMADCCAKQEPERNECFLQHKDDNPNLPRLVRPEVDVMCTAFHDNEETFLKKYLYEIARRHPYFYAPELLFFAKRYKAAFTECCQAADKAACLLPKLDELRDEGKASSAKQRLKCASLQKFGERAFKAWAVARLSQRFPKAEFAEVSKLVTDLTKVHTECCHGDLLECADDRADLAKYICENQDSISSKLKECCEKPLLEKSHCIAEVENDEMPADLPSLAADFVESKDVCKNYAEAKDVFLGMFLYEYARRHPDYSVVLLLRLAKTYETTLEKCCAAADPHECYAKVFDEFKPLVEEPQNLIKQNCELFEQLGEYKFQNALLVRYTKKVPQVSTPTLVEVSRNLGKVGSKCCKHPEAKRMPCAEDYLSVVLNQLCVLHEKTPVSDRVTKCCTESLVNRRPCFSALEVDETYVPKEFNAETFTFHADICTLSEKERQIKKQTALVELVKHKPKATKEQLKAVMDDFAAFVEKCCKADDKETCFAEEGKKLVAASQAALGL
Nature of the data set: Determination of HSA binding on a Chiralpak HSA column. The format is in vitro ADME. Conditions: Tab. 8; metal not stated (Fig. 18: ^natLu). The procedure: Human serum albumin (HSA) binding of the CCK-2R-targeted compounds was determined as reported by Valko et al., using a Chiralpak HSA column (50 x 3 mm, 5 µm, H13H-2433, Daicel, Tokyo, Japan) at a constant flow rate of 0.5 mL/min at rt. Therefore, an aq. solution of NH4OAc (pH = 6.9, 50 mM) as mobile phase A and isopropanol as mobile phase B were freshly prepared. In order to calibrate the column prior to the experiments, the retention times of nine reference substances with a HSA binding in the range of 13 to 99% were determined using a gradient of 100% A (0 to 3 min), followed by 80% A (3 to 40 min). Furthermore, all substances tested, were dissolved in a mixture (1/1, v/v) of A and B reaching a final concentration of 0.5 mg/mL. The HSA binding of all rhCCK ligands tested, was determined using the same gradient as for the calibration probes. The non-linear regression of the calibration experiments and the CCK-2R ligands (Fig. 29) was established using the OriginPro 2016G software (Northampton, United States).

The target of the next data set is T2, CCK-2R (Rattus norvegicus, UniProt P30553).
T2 construct: The CCK-2R expressing rat pancreatic tumor cells AR4-2J; host or cells: AR4-2J rat pancreatic tumor cells
T2 sequence (P30553 1-452): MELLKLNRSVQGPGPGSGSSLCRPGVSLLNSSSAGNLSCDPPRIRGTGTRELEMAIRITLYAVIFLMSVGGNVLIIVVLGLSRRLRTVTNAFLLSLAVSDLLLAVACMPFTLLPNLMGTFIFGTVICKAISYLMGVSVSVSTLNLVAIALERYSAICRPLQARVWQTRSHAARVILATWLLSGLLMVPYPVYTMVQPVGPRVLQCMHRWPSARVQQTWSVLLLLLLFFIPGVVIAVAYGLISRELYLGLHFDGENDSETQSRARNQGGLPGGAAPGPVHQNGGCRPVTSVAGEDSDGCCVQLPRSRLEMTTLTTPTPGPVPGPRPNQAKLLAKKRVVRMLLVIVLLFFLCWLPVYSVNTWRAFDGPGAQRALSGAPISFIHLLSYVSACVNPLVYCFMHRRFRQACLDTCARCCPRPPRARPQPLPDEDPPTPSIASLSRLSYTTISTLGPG
Nature of the data set: Determination of IC50: CCK-2R affinity on AR4-2J cells, competition with [^177Lu]Lu-DOTA-PP-F11N. The class given is binding. In outline: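 Competitive displacement of 0.3 pmol/well [177Lu]Lu-DOTA-PP-F11N by compounds (10^-10 to 10^-4 M) on AR4-2J cells in BSA-supplemented medium, 3 h at 37 °C. Free label was collected from medium plus PBS rinse, and cell-bound label was recovered with 1 M NaOH, both measured by γ-counter. Each IC50 was determined twice, in triplicate.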

Where [3] appears, read: AR4-2J cells; ^natLu-labeled; read-out: IC50 [nM] (n = 3), ^natLu-labeled.

Like-named read-outs stand apart in the source and are kept apart here. Starred links: 1 amine or outer side, 2 acyl side, 3 side chain; linkers in the order of their positions; H or OH if unused. Non-standard residues stand in square brackets, D forms with d. Residues, ends and D or L forms follow the SMILES beside them. *: point of attachment. Benzoyl(4-SiFtBu2) = CC(C)(C)[Si](F)(c1ccc(C(=O)*)cc1)C(C)(C)C; DOTA = O=C(O)CN1CCN(CC(=O)O)CCN(CC(=O)*)CCN(CC(=O)O)CC1; PEG12 = NCCOCCOCCOCCOCCOCCOCCOCCOCCOCCOCCOCCOCCC(=O)O; d(γGlu) = O=C(O)[C@@H](CCC(=O)[*:2])N[*:1]; PEG8 = NCCOCCOCCOCCOCCOCCOCCOCCOCCC(=O)O; 1Nal = N[C@@H](Cc1cccc2ccccc12)C(=O)O; Hyp = O=C(O)[C@@H]1C[C@@H](O)CN1; NMeNle = CCCC[C@H](NC)C(=O)O; PEG4 = NCCOCCOCCOCCOCCC(=O)O; dDap = NC[C@@H](N)C(=O)O

Experimental findings from patent publication EP4631959A2, “NOVEL MINIGASTRIN-DERIVED CHOLECYSTOKININ 2 RECEPTOR BINDING MOLECULES FOR IMAGING AND TARGETED RADIOTHERAPY” (priority 2022, dated 2024) are described below.

What is called IC50 is the concentration that inhibits the measured activity by half. Regarding `CCCC[C@@H](C(=O)N[C@@H](CC(=O)O)C(=O)N[C@@H](Cc1cccc2ccccc12)C(N)=O)N(C)C(=O)[C@H](Cc1c[nH]c2ccccc12)NC(=O)CCOCCOCCOCCOCCNC(=O)CC[C@@H](NC(=O)CCOCCOCCOCCOCCOCCOCCOCCOCCNC(=O)CC[C@@H](NC(=O)[C@@H](CNC(=O)c1ccc([Si](F)(C(C)(C)C)C(C)(C)C)cc1)NC(=O)CN1CCN(CC(=O)O)CCN(CC(=O)O)CCN(CC(=O)O)CC1)C(=O)O)C(=O)O` [DOTA-rhCCK-70, DOTA-dap(SiFA)-γ-glu-(PEG7-γ-glu-(PEG)3-Trp-(N-Me)Nle-Asp-1-Nal-NH2], in data set [1], the “logD7.4 (n ≥ 5), ^177Lu-labeled” value is recorded as −1.67 ± 0.08. The “HSA binding [%]” value in data set [2] is on record as 89.3%. Besides, the IC50 on CCK-2R (setting [3]) amounted to 12.6 ± 2 nM.

As to `CCCC[C@@H](C(=O)N[C@@H](CC(=O)O)C(=O)N[C@@H](Cc1cccc2ccccc12)C(N)=O)N(C)C(=O)[C@H](Cc1c[nH]c2ccccc12)NC(=O)CCOCCOCCOCCOCCNC(=O)CC[C@@H](NC(=O)CCOCCOCCOCCOCCOCCOCCOCCOCCNC(=O)CC[C@@H](NC(=O)[C@@H](CNC(=O)C[N+](C)(C)Cc1ccc([Si](F)(C(C)(C)C)C(C)(C)C)cc1)NC(=O)CN1CCN(CC(=O)O)CCN(CC(=O)O)CCN(CC(=O)O)CC1)C(=O)O)C(=O)O` [DOTA-rhCCK-71, DOTA-dap(SiFAlin)-γ-glu-(PEG)7-γ-glu-(PEG)3-Trp-(N-Me)Nle-Asp-1-Nal-NH2], in data set [1], the “logD7.4 (n ≥ 5), ^177Lu-labeled” value is recorded as −1.63 ± 0.06. Also, the “HSA binding [%]” value in data set [2] was 89.1%. Moreover, on CCK-2R (setting [3]), the IC50 turned out to be 13.3 ± 1.3 nM.

In the case of `CCCC[C@@H](C(=O)N[C@@H](CC(=O)O)C(=O)N[C@@H](Cc1cccc2ccccc12)C(N)=O)N(C)C(=O)[C@H](Cc1c[nH]c2ccccc12)NC(=O)CCOCCOCCOCCOCCNC(=O)CC[C@@H](NC(=O)CCOCCOCCOCCOCCOCCOCCOCCOCCNC(=O)CC[C@@H](NC(=O)[C@@H](CNC(=O)c1cc(C(=O)O)cc([Si](F)(C(C)(C)C)C(C)(C)C)c1)NC(=O)CN1CCN(CC(=O)O)CCN(CC(=O)O)CCN(CC(=O)O)CC1)C(=O)O)C(=O)O` [DOTA-rhCCK-72, DOTA-dap(SiFA-ipa)-γ-glu-(PEG)7-γ-glu-(PEG)3-Trp-(N-Me)Nle-Asp-1-Nal-NH2], the “logD7.4 (n ≥ 5), ^177Lu-labeled” value in data set [1] is given as −2.32 ± 0.03. The “HSA binding [%]” value in data set [2] was found to be 89.3%. In addition, the half-maximal inhibitory concentration (IC50) on CCK-2R (setting [3]) worked out at 52.3 ± 6.2 nM.

`CCCC[C@@H](C(=O)N[C@@H](CC(=O)O)C(=O)N[C@@H](Cc1cccc2ccccc12)C(N)=O)N(C)C(=O)[C@H](Cc1c[nH]c2ccccc12)NC(=O)CCOCCOCCOCCOCCNC(=O)CC[C@@H](NC(=O)CCOCCOCCOCCOCCOCCOCCOCCOCCNC(=O)[C@@H](CNC(=O)c1ccc([Si](F)(C(C)(C)C)C(C)(C)C)cc1)NC(=O)CN1CCN(CC(=O)O)CCN(CC(=O)O)CCN(CC(=O)O)CC1)C(=O)O` [DOTA-rhCCK-73, DOTA-dap(SiFA)-(PEG)7-γ-glu-(PEG)3-Trp-(N-Me)Nle-Asp-1-Nal-NH2] ({DOTA}-[dDap](Benzoyl(4-SiFtBu2))[PEG8][d(γGlu)][PEG4]W[NMeNle]D[1Nal]-NH2): the “logD7.4 (n ≥ 5), ^177Lu-labeled” value in data set [1] is recorded as −1.02 ± 0.06. Also, in data set [2], the “HSA binding [%]” value is on record as 90.4%. Moreover, the 50% inhibitory concentration (IC50) on CCK-2R (setting [3]) stood at 15.6 ± 0.7 nM.

As to `CCCC[C@@H](C(=O)N[C@@H](CC(=O)O)C(=O)N[C@@H](Cc1cccc2ccccc12)C(N)=O)N(C)C(=O)[C@H](Cc1c[nH]c2ccccc12)NC(=O)CCOCCOCCOCCOCCNC(=O)CC[C@@H](NC(=O)CCOCCOCCOCCOCCOCCOCCOCCOCCOCCOCCOCCOCCNC(=O)[C@@H](CNC(=O)c1ccc([Si](F)(C(C)(C)C)C(C)(C)C)cc1)NC(=O)CN1CCN(CC(=O)O)CCN(CC(=O)O)CCN(CC(=O)O)CC1)C(=O)O` [DOTA-rhCCK-74, DOTA-dap(SiFA)-(PEG)11-γ-glu-(PEG)3-Trp-(N-Me)Nle-Asp-1-Nal-NH2] ({DOTA}-[dDap](Benzoyl(4-SiFtBu2))[PEG12][d(γGlu)][PEG4]W[NMeNle]D[1Nal]-NH2), in data set [1], the “logD7.4 (n ≥ 5), ^177Lu-labeled” value was −1.19 ± 0.07. Moreover, the “HSA binding [%]” value in data set [2] is on record as 87.2%. On CCK-2R (setting [3]), the IC50 was determined as 12.1 ± 1 nM.

As to `CCCC[C@@H](C(=O)N[C@@H](CC(=O)O)C(=O)N[C@@H](Cc1cccc2ccccc12)C(N)=O)N(C)C(=O)[C@H](Cc1c[nH]c2ccccc12)NC(=O)CCOCCOCCOCCOCCNC(=O)CC[C@@H](NC(=O)CCOCCOCCOCCOCCOCCOCCOCCOCCOCCOCCOCCOCCNC(=O)CC[C@@H](NC(=O)[C@@H](CNC(=O)C[N+](C)(C)Cc1ccc([Si](F)(C(C)(C)C)C(C)(C)C)cc1)NC(=O)CN1CCN(CC(=O)O)CCN(CC(=O)O)CCN(CC(=O)O)CC1)C(=O)O)C(=O)O` [DOTA-rhCCK-75, DOTA-dap(SiFAlin)-γ-glu-(PEG)11-γ-glu-(PEG)3-Trp-(N-Me)Nle-Asp-1-Nal-NH2], the “logD7.4 (n ≥ 5), ^177Lu-labeled” value in data set [1] was −1.15 ± 0.05; in data set [1] (listed as [^nat/177Lu]Lu-DOTA-rhCCK-75), -1.15 ± 0.05. For the same compound, the “HSA binding [%]” value in data set [2] is recorded as 90.9%. The half-maximal inhibitory concentration (IC50) at CCK-2R (setting [3]) was found to be 19.2 ± 1.6 nM.

Consider `CCCC[C@@H](C(=O)N[C@@H](CC(=O)O)C(=O)N[C@@H](Cc1cccc2ccccc12)C(N)=O)N(C)C(=O)[C@H](Cc1c[nH]c2ccccc12)NC(=O)CCOCCOCCOCCOCCNC(=O)CC[C@@H](NC(=O)CCOCCOCCOCCOCCOCCOCCOCCOCCOCCOCCOCCOCCNC(=O)CC[C@@H](NC(=O)[C@@H](CNC(=O)c1ccc([Si](F)(C(C)(C)C)C(C)(C)C)cc1)NC(=O)CN1CCN(CC(=O)O)CCN(CC(=O)O)CCN(CC(=O)O)CC1)C(=O)O)C(=O)O` [DOTA-rhCCK-76, DOTA-dap(SiFA)-γ-glu-(PEG)11-γ-glu-(PEG)3-Trp-(N-Me)Nle-Asp-1-Nal-NH2], for which the “logD7.4 (n ≥ 5), ^177Lu-labeled” value is given as −1.82 ± 0.09 in data set [1] and -1.82 ± 0.09 in data set [1] (listed as [^nat/177Lu]Lu-DOTA-rhCCK-76). Besides, the “HSA binding [%]” value in data set [2] was 86.2%. At CCK-2R (setting [3]), the IC50 was determined as 14.2 ± 0.9 nM.

For `CCCC[C@@H](C(=O)N[C@@H](CC(=O)O)C(=O)N[C@@H](Cc1cccc2ccccc12)C(N)=O)N(C)C(=O)[C@H](Cc1c[nH]c2ccccc12)NC(=O)CCOCCOCCOCCOCCNC(=O)CC[C@@H](NC(=O)[C@@H]1C[C@@H](O)CN1C(=O)[C@@H]1C[C@@H](O)CN1C(=O)[C@@H]1C[C@@H](O)CN1C(=O)CC[C@@H](NC(=O)[C@@H](CNC(=O)c1ccc([Si](F)(C(C)(C)C)C(C)(C)C)cc1)NC(=O)CN1CCN(CC(=O)O)CCN(CC(=O)O)CCN(CC(=O)O)CC1)C(=O)O)C(=O)O` [DOTA-rhCCK-83, DOTA-dap(SiFA)-γ-glu-(Hyp)3-γ-glu-(PEG)3-Trp-(N-Me)Nle-Asp-1-Nal-NH2] ({DOTA}-[dDap](Benzoyl(4-SiFtBu2))[d(γGlu)][Hyp][Hyp][Hyp][d(γGlu)][PEG4]W[NMeNle]D[1Nal]-NH2), the “logD7.4 (n ≥ 5), ^177Lu-labeled” value in data set [1] is on record as −1.50 ± 0.05. The “HSA binding [%]” value in data set [2] was found to be 93.4%. Moreover, on CCK-2R (read-out: IC50 [nM] (n = 3), ^natLu-labeled; AR4-2J cells; ^natLu-labeled), the IC50 amounted to 10 ± 0.9 nM.
